Laboratory results reported in the RNAGym collection of RNA variant scans (doi:10.1073/pnas.2313332121).

B1: TPR t1 (parent)
chain: GACCAAUCUGCCCUCAGAGCUCGAGAACAUCUUCGGAUGCAGAGGAGGCAGGCUUCGGUGGCGCGAUAGCGCCAACGUCCUCAACCUCCAAUGCAUCCCACCACAUGAUGAUGCCUGAAGAGCCUUGGUUUUUUG

Variants of: B1
Assay: polymerase ribozyme fitness, log enrichment relative to wild type (log ratio); higher = more active; in vitro selection for triplet polymerase activity
Outline: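 A single round of triplicate in vitro selection, including frozen incubation at −7 °C, was applied to PCR-built, transcribed mutant libraries of each subunit of a heterodimeric triplet polymerase ribozyme. Illumina sequencing of input and output libraries retained genotypes with ≥10 input reads and ≥1 read per output. Fitness is the base-2 logarithm of genotype enrichment divided by wild-type enrichment, from inverse-variance-weighted replicate averages.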

Variant	polymerase ribozyme fitness (log ratio)
A46C A100C C115U U129A	-5.33
A46C G93U	-1.86
G45U C53A C72A C89G	-1.62
A46C C79A C85G	-5.69
A46C U112A	0.587
A46C C114U U130G	-3.02
G45U A74C G77A U112C	1.05
A46G A50U C88A C89A C124A U133A	-0.0922
A46C G69A C72A	-4.32
G45U U87A	-1.32
G45U U55C G61U	-1.09
A46C C53U U54G G120U	-0.194
G45U C70A G120U G122C	-2.72
G45U C101U G113A	-2.93
G45U A50U G60A C62U	-1.75
G45U C102A	-3.34
A46C C72U	-1.13
A46C C72A	0.257
G45U G63U C101G U112A	-2.32
G45U G47U C53A G57A G58U C86A	-2.17
G45U A75G U106C A119U A121C U130A	-0.0532

Variant	polymerase ribozyme fitness (log ratio)
A46G A83G	-0.884
G45U A111U C124U	-3.45
G45U C49G C53U C88G	-0.226
G45U G51A	-3.89
A46C U87G A100U	-0.0504
A46C U54A A66C U87G G113U	-5.68
G45U C94U C101G	-3.3
G45U A50U G58C C114G	-5.4
G45U G93A	-1.79
A46C C53G G57C A66C C115U G122A	-6.53
G45U G57C A118U	-0.526
A46C G77U A100C	-2.17
A46G C56A A84C C104A C115U A118U A119U	-3.57
G45U C56U C70U A75U	-2.3
A46C U126G	-2.07
A46C G60C	-0.75
G45U U54C U132C	-1.01
G45U C53A G69A C89A C104U C124A G135A	-6.34
G45U C99A G117C	-6.81
A46C A100G	-4.28
A46C C79A	-2.25

Variant	polymerase ribozyme fitness (log ratio)
A46C C79G	-2.93
G45U U129G U132A	-3.85
G45U U54A	-1.35
A46C A50U C72A	-1.15
G45U A50U G60U C79G	-2.53
G45U C72G C114A	-2.66
G45U C123A	-0.805
G45U C123G	-0.391
A46G C53A G127C	-1.2
G45U G58A C86U A95C	-3.29
A46C C56A	-1.56
A46G C49U C86A G93A	-2.56
A46C C56G C72G U87A A100U C124A	-0.516
A46C C64A	-5.98
A46C A50U G71U	-1.86
G45U G93C C124G	0.153
A46G A68U C114G	-5.84
A46C G69A	-2.87
A46C G128C	-3.42
A46C C53A A95C G128C	-3.03
G45U G110C	-4.47

Variant	polymerase ribozyme fitness (log ratio)
G45U C62U	-1.63
A46C G69C U81C U112G	-4.07
A46C U54A	-0.931
A46C C53U U112A	0.835
G45U C53A A90G C97U	-1.75
G45U A90C	-1.56
G45U G52A U96G	-2.98
A46G C56U G110U U116A	-2.84
A46C C79A G120A	-1.25
A46C U78C C101G	-2.77
A46C G120C	1.36
A46C G63C G93A U116A G120U G135U	-4.76
A46C G63A U96A	-2.58
G45U C72U	-1.63
G45U G117U	-3.43
G45U G117A	-1.62
A46C U55A G63C	-0.439
G45U C53A C64A U112A G117A	-6.13
G45U U78A	-1.86
G45U C88U	-0.272
